Experiment [1] has as its target T1, human GPC3 on tumor cell lines (HepG2, Huh-7, NCI-H661, MKN-45, NCI-H23, BxPC-3, NCI-H292) (human, UniProt P51654 25-554). As to the kind of experiment: cell-based or functional assay.
The target in experiment [2] is T2, human GPC2 (R&D systems, cat no 2304-GP) (human, UniProt Q8N158 24-554, limits assumed).
T2 construct: Bought
T2 sequence (looked up): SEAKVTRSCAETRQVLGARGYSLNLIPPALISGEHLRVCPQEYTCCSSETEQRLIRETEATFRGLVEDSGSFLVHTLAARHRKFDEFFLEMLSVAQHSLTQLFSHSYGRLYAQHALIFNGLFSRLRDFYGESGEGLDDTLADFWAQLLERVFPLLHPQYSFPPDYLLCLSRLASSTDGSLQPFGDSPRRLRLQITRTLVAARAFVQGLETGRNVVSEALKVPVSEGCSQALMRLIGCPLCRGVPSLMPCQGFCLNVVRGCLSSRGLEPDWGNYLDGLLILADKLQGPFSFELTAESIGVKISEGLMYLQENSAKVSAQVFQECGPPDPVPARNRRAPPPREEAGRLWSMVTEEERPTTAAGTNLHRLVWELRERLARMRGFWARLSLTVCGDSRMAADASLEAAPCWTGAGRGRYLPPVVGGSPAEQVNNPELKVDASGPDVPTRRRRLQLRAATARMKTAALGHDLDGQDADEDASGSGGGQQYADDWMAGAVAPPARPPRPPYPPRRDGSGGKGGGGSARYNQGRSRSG
Briefly: ELISA, GPC2 coated at 2 ug/mL. The protocol:
Human GPC1 (R&D systems, cat no 4519-GP), human GPC2 (R&D systems, cat no 2304-GP), human GPC3 (R&D systems, cat no 2119-GP), human Glypican-5 (R&D systems, cat no 2607-G5) and human Glypican-6 (R&D systems, cat no 2845-GP) were directly coated overnight at 4° C. (2 μg/mL, 1×PBS buffer) on a 384-well HB SpectraPlate (PerkinElmer). The following day the plate was washed 6 times (AquaMax microplate washer, Molecular devices) and blocked with 1×PBS+1% Casein for 2 hours at room temperature. […] After 6 final wash steps the es(HS)TMB substrate (SDT) was added and the reaction stopped by addition of 1 M HCl after 10 minutes. The absorbance of the plate was measured at wavelengths 450 and 620 nm on the Clariostar instrument (BMG LABTECH) and the OD₄₅₀-OD₆₂₀ calculated and plotted for data analysis.
Background: In an ELISA, binding on a coated surface is turned into a signal by an enzyme label.

The target in experiment [3] is T1, human GPC3 on tumor cell lines (HepG2, …). As to the kind of experiment: flow cytometry on Huh-7 cells. A general note: Flow cytometry measures light scatter and fluorescence of single cells or particles in a stream.
Experiment [4] deals with T3, Recombinant human GPC4/hFc (R&D Systems, cat no 9195-GP) (human, UniProt O75487 19-529, limits assumed).
T3 construct: Bought; not shown: captured with anti-human IgG1
T3 sequence (looked up): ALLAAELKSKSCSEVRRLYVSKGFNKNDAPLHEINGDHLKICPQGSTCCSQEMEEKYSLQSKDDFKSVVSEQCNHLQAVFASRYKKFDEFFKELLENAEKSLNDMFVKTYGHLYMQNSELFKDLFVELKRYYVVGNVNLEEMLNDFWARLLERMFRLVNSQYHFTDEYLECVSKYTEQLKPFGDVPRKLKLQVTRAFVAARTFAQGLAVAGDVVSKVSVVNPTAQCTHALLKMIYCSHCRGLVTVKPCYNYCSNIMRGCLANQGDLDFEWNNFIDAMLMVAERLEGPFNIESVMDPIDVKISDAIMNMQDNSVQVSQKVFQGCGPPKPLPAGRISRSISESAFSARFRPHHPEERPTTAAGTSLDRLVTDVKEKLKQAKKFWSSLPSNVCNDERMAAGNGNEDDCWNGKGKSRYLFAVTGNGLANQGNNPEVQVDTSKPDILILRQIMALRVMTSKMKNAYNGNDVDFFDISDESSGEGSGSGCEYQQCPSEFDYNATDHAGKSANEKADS
As to the kind of experiment: SPR ProteOn XPR36, GPC4/hFc captured on anti-human IgG1. The text has this:
Data was double referenced by subtracting a reference ligand lane and a blank buffer injection.

Experiment [5] has as its target T4, TCRab on primary cyno T cells (cynomolgus).
T4 construct: whole, on cells; also called Primary cy T cells; cyno TCR
As to the kind of experiment: competition flow cytometry on cyno T cells, competitor T017000623 at EC30 (5E-08 M). Here is the method: (§1) T cells (human T cells obtained as described in Example 3 and cyno T cells purchased from LPT laboratory, Germany) were thawed and counted on the day of the assay and diluted to a concentration of 1E+06 cells/mL, before adding 75 μL to the wells of a V-bottom 96-well plate (Greiner, cat no 651180). Cells were washed once with cold FACS buffer, before adding 25 μL Nb and 25 μL competitor to the wells. […] Cells were resuspended and plates were incubated at 4° C. for 90 minutes, after which plates were washed twice in cold FACS buffer. Cells were resuspended in 50 μl 1/1000 diluted Monoclonal ANTI-FLAG® M2 (Sigma Aldrich, cat no F1804) in FACS buffer and incubated at 4° C. for 30 minutes. Plates were washed twice in cold FACS buffer. […] Plates were washed twice in cold FACS buffer. Cells were resuspended in 55 μL 1/1000 diluted Propidium Iodide (Sigma-Aldrich, cat no P4170) in FACS buffer before acquiring data on the MACSQuant X (Miltenyi biotec).

The target of experiment [6] is T5, TCRab on primary human T cells (human, UniProt P01848 1-140; P01850 1-176).
T5 construct: whole, on cells; T cells isolated from buffy coats; also called Primary hu T cells; human TCR
T5 TCR alpha (looked up): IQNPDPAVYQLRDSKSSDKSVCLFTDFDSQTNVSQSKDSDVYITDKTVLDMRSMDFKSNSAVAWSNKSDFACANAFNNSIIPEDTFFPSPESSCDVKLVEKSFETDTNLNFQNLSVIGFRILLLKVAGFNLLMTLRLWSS
T5 TCR beta (looked up): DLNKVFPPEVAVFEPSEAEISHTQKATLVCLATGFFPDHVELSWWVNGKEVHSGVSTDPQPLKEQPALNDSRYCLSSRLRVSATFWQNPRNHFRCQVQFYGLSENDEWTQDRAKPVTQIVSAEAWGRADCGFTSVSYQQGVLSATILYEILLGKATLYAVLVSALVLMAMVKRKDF
As to the kind of experiment: competition flow cytometry on primary human T cells, competitor T017000624 at EC30 (2E-08 M). The protocol: as §1

Broadly, the EC50 is the concentration giving half of the maximal effect. A high value points to lower potency in that assay. For orientation: IC50 means the concentration that inhibits the measured activity by half.

B1: A022600424 (other)
chain: DVQLVESGGGVVQPGGSLRLSCVASGYVHKINFYGWYRQAPGKEREKVAHISIGDQTDYADSAKGRFTISRDESKNTVYLQMNSLRPEDTAAYYCRALSRIWPYDYWGQGTLVTVSSGGGGSEVQLVESGGGVVQPGGSLRLSCAASGFTFSSFAMTWVRRPPGKGLEWVATITNKGVTSYADSVKGRFTISRDNAKNTLYLQMNSLRPEDTALYICANARRTGPRAPTDIGSYRGQGTLVTVSSGGGGSGGGSEVQLVESGGGVVQPGGSLRLSCAASGSIFRSVFSSSTMEWYRQAPGKKRELVARIAPGEGTYYGALYADSVKGRFTISRDNAKNTVYLQMNSLRPEDTALYYCASGVAWGQGTLVTVSSGGGGSGGGSEVQLVESGGGVVQPGGSLRLSCAASGFTFRSFGMSWVRQAPGKGPEWVSSISGSGSDTLYADSVKGRFTISRDNSKNTLYLQMNSLRPEDTALYYCTIGGSLSRSSQGTLVTVSSA
notes: Trispecific tetravalent ISVD (VHH) T-cell engager: anti-TCR, two anti-GPC3 (biparatopic), anti-albumin; also called TCE01-5GS-A022600351-9GS-A022600314-9GS-ALB23002-A
With B1, in experiment [1], the “IC50 (M) BxPC-3, xCELLigence human TDC assay” value was more than 1e-07 M; the “IC50 (M) HepG2, xCELLigence human TDC assay” value came out at 1.15e-10 M; the “IC50 (M) Huh-7, xCELLigence human TDC assay” value is 1.16e-10 M; the “IC50 (M) NCI-H23, xCELLigence human TDC assay” value is more than 1e-07 M. Also, the “IC50 (M) NCI-H661, xCELLigence human TDC assay” value in experiment [1] was found to be 1.14e-10 M. In experiment [2], the binding result is “no binding”. Moreover, the EC50 in experiment [3] amounted to 1.25 nM. In experiment [4], the binding result is “no binding (tested: between 4 nM and 1000 nM)”. Moreover, the IC50 in experiment [5] amounted to 250 nM. For the same molecule, the 50% inhibitory concentration (IC50) in experiment [6] came to 170 nM.
